# In patent US20160193316A1 (priority 1994, published 2016):
# Like-named read-outs stand apart in the source and are kept apart here.
# How the values were obtained:
# [1] = biological target: T1, DRB1*0301 (DR3) (Homo sapiens, UniProt P01903+P01911, A100K/A102G/A103R/A169T/F55Y/I96L/K41T/L162R/M171V/P40S/Q125H/Q178H/Q39Y/R42S/S66N/T106N/T262R/W38E/Y61H); experiment: HLA class II peptide binding assay (pH 4.5); details: for DR3 binding information: unit not given; for DR3 binding data: Table XIXb
# T1 construct: endogenous in cells; host or cells: MAT
# [2] = biological target: HLA-A*0201 (Homo sapiens, UniProt P04439, D140Y/D185E/D98H/E176V/E277Q/G131W/G231S/I119V/I121R/I166T/I218V/L300P/L318F/N151K/N90K/P208A/P217A/Q86G/Q94H/R138H/R169H/T345S); experiment: HLA class I peptide binding assay
# [3] = biological target: T2, HLA-B*0702 (Homo sapiens, UniProt P01889); experiment: HLA class I peptide binding assay; details: Malaria B07 super motif peptides; binding value, no unit
# T2 construct: endogenous in cells; host or cells: GM3107
# [4] = biological target: T3, DRB1*0401 (DR4w4) (Homo sapiens, UniProt P01903+P01911, A100K/A169T/F76Y/I96L/K127E/L162R/M171V/N62H/P40V/Q125Y/R42H/S133A/S149N/S66Y/V115G/V209L/W38E); experiment: HLA class II peptide binding assay; details: for DR4w4 binding data: Table XIXb
# T3 construct: endogenous in cells; host or cells: Preiss
# T3 sequence (P01903 26-254 partner, other chains not shown): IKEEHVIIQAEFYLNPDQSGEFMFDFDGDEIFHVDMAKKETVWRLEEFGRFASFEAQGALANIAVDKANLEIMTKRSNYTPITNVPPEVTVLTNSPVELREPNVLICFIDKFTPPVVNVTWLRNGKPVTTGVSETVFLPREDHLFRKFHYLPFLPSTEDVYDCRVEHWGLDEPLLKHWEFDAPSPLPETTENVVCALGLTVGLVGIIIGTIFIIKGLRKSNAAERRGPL
# [5] = biological target: T4, DRB1*0405 (DR4w15) (Homo sapiens, UniProt P01903+P01911, A100R/A169T/D86S/F76Y/I96L/K127E/L162R/M171V/N62H/P40V/Q125Y/R42H/S133A/S149N/S66Y/V115G/V209L/W38E); experiment: HLA class II peptide binding assay; details: for DR4w15 binding data: Table XIXb
# T4 construct: endogenous in cells; host or cells: KT3
# [6] = biological target: T5, DRB1*1302 (DR6w19) (Homo sapiens, UniProt P01903+P01911, A100E/A169T/K41T/L162R/M171V/P40S/Q125H/Q178H/Q39Y/Q99D/R42S/S66N/T262R/V115G/W38E/Y61H); experiment: HLA class II peptide binding assay; details: for DR6w19 binding data: Table XIXb
# T5 construct: endogenous in cells; host or cells: H0301
# T5 sequence (P01903 26-254, other chains not shown): as the sequence (P01903 26-254 partner, other chains not shown) above
# [7] = biological target: T6, DRB1*1101 (DR5w11) (Homo sapiens, UniProt P01903+P01911, A100R/A169T/A87E/I96F/K41T/L162R/M171V/P40S/Q125H/Q178H/Q39Y/Q99D/R42S/S66Y/T262R/V115G/W38E); experiment: biochemical; type: binding
# T6 construct: endogenous in cells; host or cells: Sweig
# T6 sequence (P01903 26-254, other chains not shown): as the sequence (P01903 26-254 partner, other chains not shown) above
# [8] = biological target: T7, DRB4*0101 (DRw53) (Homo sapiens, UniProt P01903+P13762, G164S); experiment: HLA class II peptide binding assay (pH 5.0)
# T7 construct: expressed in transfected cells; host or cells: L257.6 (fibroblasts)
# [9] = biological target: T8, DRB1*0101 (DR1) (Homo sapiens, UniProt P01903+P01911, A100R/D57E/F55L/F60I/F76Y/I96L/L162R/M171V/P40L/Q125E/R42F/V115G/Y59C); experiment: HLA class II peptide binding assay; details: for DR1 binding data: Table XIXb, Malaria Super Motif Peptides With Binding Data
# T8 construct: endogenous in cells; host or cells: LG2
# T8 sequence (P01903 26-254 partner, other chains not shown): as above
# [10] = biological target: T9, DRB1*0802 (DR8w2) (Homo sapiens, UniProt P01903+P01911, A100R/A103L/A169T/F76Y/H45Y/I96F/K41T/L162R/M171V/P40S/Q125H/Q178H/Q39Y/Q99D/R218S/R42G/S66Y/V115G/W38E); experiment: biochemical; type: binding
# T9 construct: endogenous in cells; host or cells: OLL
# [11] = biological target: T10, DRB1*0701 (DR7) (Homo sapiens, UniProt P01903+P01911, A100R/A102G/A103Q/D57E/D86V/E43K/F76Y/K127E/L162R/M171V/P40G/Q125H/Q99D/R33Q/R42Y/R54Q/S133A/S66F/T210M/V115G/Y107V/Y59L/Y89S); experiment: biochemical; type: binding
# T10 construct: endogenous in cells; host or cells: Pitout
# [12] = biological target: T11, DRB1*1201 (DR5w12) (Homo sapiens, UniProt P01903+P01911, A100R/A169T/D57E/D86V/F55L/H45Y/K41T/L162R/M171V/P40S/Q125H/Q178H/Q39Y/Q99D/R42G/S66L/T262R/V114A/V67L/W38E/Y59H/Y61H/Y89S); experiment: HLA class II peptide binding assay; details: for DR5w12 binding data: Table XIXb
# T11 construct: endogenous in cells; host or cells: Herluf
# [13] = biological target: T12, DRB5*0101 (DR2w2β2) (Homo sapiens, UniProt P01903+Q30154); type: binding
# T12 construct: expressed in transfected cells; host or cells: L416.3 (fibroblasts) or GM3107
# [14] = biological target: T13, DRB1*0901 (DR9) (Homo sapiens, UniProt P01903+P01911, A100R/A103E/D57H/D86V/F55Y/F60I/F76Y/I96F/K127E/L162R/M171V/P40D/Q125H/Q99R/R33Q/R42F/S133A/S66N/T210M/V115G/W38K/Y107V/Y59G/Y89S); experiment: biochemical; type: binding
# T13 construct: endogenous in cells; host or cells: HID
# [15] = biological target: T14, DRB1*1501 (DR2w2β1) (Homo sapiens, UniProt P01903+P01911); experiment: HLA class II peptide binding assay; details: for DR2w2β1 binding data: Table XIXb
# T14 construct: expressed in transfected cells; host or cells: L466.1 (fibroblasts)
# [16] = biological target: HLA-A*2402 (Homo sapiens, UniProt P04439, D101N/D140Y/D185E/E176V/E190D/F33S/G103R/G107R/I119L/I121M/I306V/K335N/L105A/L180Q/L300P/N151K/N90K/Q86E/Q94H/R106L/R138H/R89G/T104I/T345S/V100E/W191G/Y123F); experiment: HLA class I peptide binding assay
# [17] = Malaria A02 motif peptides, Table VIII, unit not given
# [18] = DR3a motif peptides, unit not given, exemplary 15-mer containing the core sequence
# [19] = DR3a motif peptides, exemplary 15-mer containing the core sequence
sequence,measurement,setting,value
ALLQVRKHL,DR3 binding information,[1]; Malaria DR3b motif peptides,-0.0033
same,A*0201 (binding information),[2]; [17],0.0010
AMICLIQQLNL,A*0201 (binding information),[2]; [17],0.0006
DPNRNVDBIA (EQPQGDDNNL),B*0702 (binding information),[3],0.0002
FMKAVCVEV,DR4w4 binding data,[4],-0.0006
same,DR3 binding data,[1],-0.0008
same,DR4w15 binding data,[5],0.0086
same,DR6w19 binding data,[6],0.0003
same,DR5w11 binding data,[7],-0.0004
same,DRw53 binding data,"[8]; Table XIXb, DRw53",0.0700
same,DR1 binding data,[9],0.0072
same,DR8w2 binding data,[10],-0.0003
same,DR7 binding data,[11],0.0019
same,DR5w12 binding data,[12],0.0038
same,DR2w2β2 binding data,[13],0.0430
same,DR9 binding data,[14],0.0820
same,A*0201 (binding information),[2]; [17],0.0290
same,DR2w2β1 binding data,[15],0.0003
GLIMVLSFL,A*0201 (binding information),[2],0.0630
GPFMKAVCV,B*0702 (binding information),[3],0.0023
ILSVSSFLFV,A*0201 (binding information),[2],0.0300
ILTDGIPDS,DR4w4 binding information,[4]; [18],0.3600
same,DR3 binding information,[1]; [19],0.1400
same,DR4w15 binding information,[5]; [18],-0.0014
same,DR6w19 binding information,[6]; [18],0.0002
same,DR5w11 binding information,[7],-0.0004
same,DRw53 binding information,[8]; [18],0.0480
same,DR1 binding information,[9]; [18],0.0002
same,DR8w2 binding information,[10],-0.0003
same,DR7 binding information,[11],0.0046
same,DR5w12 binding information,[12]; [18],0.0002
same,DR2w2β2 binding information,[13],-0.0006
same,DR9 binding information,[14],0.0014
same,DR2w2β1 binding information,[15]; [18],0.0001
IPEDSEKEV,DR3 binding information,[1]; [19],-0.0130
same,B*0702 (binding information),[3],0.0001
KLRICPICHKKL,A*0201 (binding information),[2]; [17],0.0001
KYLVIVFLI,A*201 (binding information),[16],4.6000
same,"A*2401 (binding information, Malaria A24 motif peptides)",[16],4.6000
LAGGLALLA,A*0201 (binding information),[2]; [17],0.0001
LIFFDLFLV,DR4w4 binding data,[4],0.0130
same,DR3 binding data,[1],-0.0008
same,DR4w15 binding data,[5],-0.0009
same,DR6w19 binding data,[6],0.0006
same,DR5w11 binding data,[7],0.0019
same,DR1 binding data,[9],0.0006
same,DR8w2 binding data,[10],0.0007
same,DR7 binding data,[11],0.0028
same,DR5w12 binding data,[12],0.0016
same,DR2w2β2 binding data,[13],0.0019
same,DR9 binding data,[14],-0.0003
same,A*0201 (binding information),[2]; [17],0.0890
same,DR2w2β1 binding data,[15],0.0048
LLGGVCLVL,A*0201 (binding information),[2]; [17],0.0038
